From article PMC5663884, “Compositional and expression analyses of the glideosome during the Plasmodium life cycle reveal an additional myosin light chain required for maximum motility” (The Journal of Biological Chemistry, 2017)
Residues, ends and D or L forms follow the SMILES beside them. *: point of attachment. Biotin = O=C1N[C@H]2[C@H](CS[C@H]2CCCCC(=O)*)N1

How the values were obtained:
MyoA = test: immunoprecipitation with GFP-specific antibodies, Western blot: MyoA-GFP; format: binding, P. falciparum; settings: schizont lysate, probed with anti-PfELC antibodies
Protocol: (§1) Parasite lysates were precleared by incubation with blocked agarose beads for 1 h, and then the supernatant was incubated with GFP-Trap agarose beads for 2 h at 4 °C with end-over-end rotation. […] Finally, the beads were resuspended in 5 volumes of 2× SDS-PAGE sample buffer and boiled for 5 min before fractionation of the proteins by SDS-PAGE.

MyoB complex = test: immunoprecipitation with GFP-specific antibodies, Western blot: MyoB-GFP; format: binding, P. falciparum; settings: schizont lysate, probed with anti-PfELC antibodies
Protocol: as §1

[1] = circular dichroism of recombinant PfELC; format: physicochemical
Protocol: Far-UV CD spectra were recorded on a Jasco J-815 spectropolarimeter fitted with a cell holder thermostatted by a CDF-426S Peltier unit. CD measurements were made at a protein concentration of 10 μM PfELC in 25 mM Tris-HCl, pH 8.0, 50 mM NaCl using fused silica cuvettes with a 1-mm path length (Hellma). All spectra were recorded with 0.1 nm resolution and baseline-corrected by subtraction of the buffer spectrum. Secondary structure content was estimated using methods described by Sreerama and Woody ([62]).

MTIP = settings: 3D7 schizont or merozoite lysate, PfELC-specific antibodies
PfELC = biological target: T1, PfELC (Plasmodium falciparum, UniProt Q8IJM4); test: biolayer interferometry binding of PfELC to immobilized MyoA neck peptides; parameters: species or system P. falciparum; settings: 25 °C, pH 8.0, PfELC 0.04–5 μM
T1 construct: His tag (N); made in house; host or cells: E. coli BL21 (DE3)
Protocol: Overlapping peptides representing amino acids Gln^770–Ala^787, Ala^786–Ser^803, and Ile^801–Gln^818 of the PfMyoA neck were synthesized by Mimotopes with biotin at the N terminus. […] The C termini of the peptides were capped with an amide to remove unnatural charge, apart from peptide 801–818, which was left as a free acid.
P. falciparum ELC binding to peptides was analyzed by biolayer interferometry using the Octet Red system (ForteBio) at 25 °C in 96-well microplates, as described previously ([63]). All assays were performed in 100 mM Tris-HCl, pH 8.0, containing 0.005% (v/v) Tween 20, according to the manufacturer's instructions. A baseline was established over 4 min, and biotinylated peptides (0.4 μg/ml) were loaded onto streptavidin sensors for 10 min. The sensors were washed for 4 min and then incubated with PfELC at different concentrations (0.04–5 μM) for 800 s. The data were analyzed to calculate a dissociation constant (Kd) using non-linear regression with a one-site binding model and a least-squares fit (GraphPad Prism version 6).

actin = test: optical tweezer-based single-molecule acto-MyoA interaction; format: biochemical
Protocol: MyoA was expressed in a wheat germ cell-free protein synthesis system (ENDEXT® Technology, CellFree Sciences) ([64]). Recombinant plasmid DNA using recodonized template DNA was amplified using specific primers and cloned into the vector pEU-E01G-TEV-N1 to express N-terminal GST-tagged protein. For the in vitro transcription reaction, 2 μg of DNA was added to a transcription premix (11.5 μl of nuclease-free water, 1× transcription buffer, 2.5 mM NTP mix, 1 unit/μl RNase inhibitor, 1 unit/μl SP6 RNA polymerase) in a total volume of 20 μl and incubated at 37 °C for 6 h, according to the manufacturer's instructions. The quality of mRNA produced was monitored by gel electrophoresis. The bilayer reaction system (CellFree Sciences) was used to translate mRNA into protein. mRNA (10 μl) was added to 10 μl of wheat germ extract (WEPRO® 1240) supplemented with 40 ng/μl creatine kinase and carefully transferred directly below the SUB-AMIX solution (0.3 mM of each L-amino acid, 100 mM potassium acetate, 2.7 mM magnesium acetate, 16 mM disodium creatine phosphate, 0.4 mM spermidine, 1.2 mM ATP, 0.25 mM GTP, 4 mM dithiothreitol, and 30 mM HEPES-KOH (pH 7.8)) and incubated for 20 h at 15–16 °C. Soluble GST-tagged MyoA was purified using glutathione-Sepharose beads (GE Healthcare); supernatant was incubated with the resin for 2 h at 4 °C, followed by extensive washing with 20 mM Tris-HCl, pH 8.0, 250 mM NaCl, 0.5 mM TCEP. The beads were resuspended in 3 volumes of 20 mM Tris-HCl, pH 8.0, 100 mM NaCl, 10 mM reduced glutathione to elute the GST-tagged protein. This was followed by buffer exchange into PBS on a PD10 column (GE Healthcare).
The optical tweezer assay, developed to measure the force and movement produced by individual myosin molecules interacting with an actin filament, was used in the well-established three-bead format with the experimental conditions as described ([65][–][67]). The experimental apparatus is based around a Zeiss inverted microscope, and experiments were performed in a flow-cell chamber created using a microscope slide and coverslip. […] Interactions between the surface-bound MyoA and the actin filament were recorded by monitoring movement of the beads held in the optical tweezers using two 4-quadrant, photodiode detectors. […] Individual events were then automatically detected by measuring changes in amplitude of the imposed triangular oscillation, and event amplitudes were histogrammed. Data were acquired and saved to computer memory using custom software, with a sampling rate of 10 kHz, and later analyzed using IgorPro software (WaveMetrics Inc., Lake Oswego, OR). Individual acto-MyoA force-producing events were identified as described previously ([65]), and the MyoA power-stroke amplitude and kinetics were analyzed by histogram analysis of the data.

[2] = biological target: T2, Recombinant His-tagged PfELC (E. coli) (P. falciparum, UniProt Q8IJM4 1-134); test: BLI; settings: both partners purified
T2 construct: also called His-PfELC; His-ELC; source: E. coli BL21 (DE3), purified (nickel-nitrilotriacetic acid-agarose)
T2 sequence: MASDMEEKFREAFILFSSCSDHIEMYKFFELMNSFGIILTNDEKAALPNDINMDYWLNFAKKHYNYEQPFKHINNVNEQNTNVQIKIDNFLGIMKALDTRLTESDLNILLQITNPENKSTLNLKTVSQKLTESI

[3] = far-UV CD, 10 μM PfELC, 25 mM Tris-HCl pH 8.0, 50 mM NaCl

essential light chain [PfELC]
presence in MyoA-GFP immunoprecipitate (MyoA): a 14-kDa protein associated with MyoA in the glideosome complex
presence in MyoB-GFP immunoprecipitate (MyoB complex): none was detected associated with the MyoB complex
effect of calcium on near- or far-UV CD spectrum ([1]; 1 mM calcium ions): no effect on either the near- or far-UV spectrum
turn content [1, 3]: 20%
α helix content [1, 3]: 32%
β sheet content [1, 3]: 17%
presence in anti-MTIP immunoprecipitate (MTIP): present with MTIP in the same complex

CC[C@H](C)[C@H](NC(=O)[C@H](C)NC(=O)[C@H](C)NC(=O)CNC(=O)[C@H](CO)NC(=O)CNC(=O)[C@H](CO)NC(=O)CCCC[C@@H]1SC[C@@H]2NC(=O)N[C@@H]21)C(=O)N[C@@H](CC(C)C)C(=O)N[C@@H](CCCCN)C(=O)N[C@@H](Cc1c[nH]cn1)C(=O)N[C@@H](CCCCN)C(=O)N[C@@H](Cc1ccc(O)cc1)C(=O)N[C@@H](CCCCN)C(=O)N[C@@H](CCC(N)=O)C(=O)N[C@@H](CCCCN)C(=O)N[C@H](C(=O)N[C@@H](CC(N)=O)C(=O)N[C@@H](CCCCN)C(=O)N[C@@H](CC(N)=O)C(=O)N[C@H](C(=O)N1CCC[C@H]1C(=O)N[C@@H](CO)C(N)=O)[C@@H](C)CC)C(C)C [786–803] (Biotin-SGSGAAILKHKYKQKVNKNIPS-NH2)
binding to PfELC (in words) (PfELC): binds strongly to PfELC

peptide 770–787: biotinylated PfMyoA neck peptide Gln770–Ala787 with SGSG linker, C-terminal amide (Biotin-SGSGQREKLVEWENCVSVIEAA-NH2; SMILES CC[C@H](C)[C@H](NC(=O)[C@@H](NC(=O)[C@H](CO)NC(=O)[C@@H](NC(=O)[C@H](CS)NC(=O)[C@H](CC(N)=O)NC(=O)[C@H](CCC(=O)O)NC(=O)[C@H](Cc1c[nH]c2ccccc12)NC(=O)[C@H](CCC(=O)O)NC(=O)[C@@H](NC(=O)[C@H](CC(C)C)NC(=O)[C@H](CCCCN)NC(=O)[C@H](CCC(=O)O)NC(=O)[C@H](CCCNC(=N)N)NC(=O)[C@H](CCC(N)=O)NC(=O)CNC(=O)[C@H](CO)NC(=O)CNC(=O)[C@H](CO)NC(=O)CCCC[C@@H]1SC[C@@H]2NC(=O)N[C@@H]21)C(C)C)C(C)C)C(C)C)C(=O)N[C@@H](CCC(=O)O)C(=O)N[C@@H](C)C(=O)N[C@@H](C)C(N)=O; UniProt Q8IDR3 770-787, looked up, fragment)
binding to PfELC (in words) (PfELC): no observable binding
binding to PfELC (in words) (PfELC; listed as MyoA 770–787): no binding

B1: Myosin A (protein)
chain: MAVTNEEIKTASKIVRRVSNVEAFDKSGSVFKGYQIWTDISPTIENDPNIMFVKCVVQQGSKKEKLTVVQIDPPGTGTPYDIDPTHAWNCNSQVDPMSFGDIGLLNHTNIPCVLDFLKHRYLKNQIYTTAVPLIVAINPYKDLGNTTNEWIRRYRDTADHTKLPPHVFTCAREALSNLHGVNKSQTIIVSGESGAGKTEATKQIMRYFASSKSGNMDLRIQTAIMAANPVLEAFGNAKTIRNNNSSRFGRFMQLVISHEGGIRYGSVVAFLLEKSRIITQDDNERSYHIFYQFLKGANSTMKSKFGLKGVTEYKLLNPNSTEVSGVDDVKDFEEVIESLKNMELSESDIEVIFSIVAGILTLGNVRLIEKQEAGLSDAAAIMDEDMGVFNKACELMYLDPELIKREILIKVTVAGGTKIEGRWNKNDAEVLKSSLCKAMYEKLFLWIIRHLNSRIEPEGGFKTFMGMLDIFGFEVFKNNSLEQLFINITNEMLQKNFVDIVFERESKLYKDEGISTAELKYTSNKEVINVLCEKGKSVLSYLEDQCLAPGGTDEKFVSSCATNLKENNKFTPAKVASNKNFIIQHTIGPIQYCAESFLLKNKDVLRGDLVEVIKDSPNPIVQQLFEGQVIEKGKIAKGSLIGSQFLNQLTSLMNLINSTEPHFIRCIKPNENKKPLEWCEPKILIQLHALSILEALVLRQLGYSYRRTFEEFLYQYKFVDIAAAEDSSVENQNKCVNILKLSGLSESMYKIGKSMVFLKQEGAKILTKIQREKLVEWENCVSVIEAAILKHKYKQKVNKNIPSLLRVQAHIRKKMVAQ
modifications: left off: GST, N-terminal, kept
notes: GST-tagged PfMyoA expressed in wheat germ cell-free system
rate constant of event lifetimes (single-exponential least-square fit) (actin; 0.3 μM Mg·ATP): 6.9 s⁻¹
rate constant of event lifetimes (single-exponential least-square fit) (actin; 8 μM Mg·ATP): 53 s⁻¹
second-order rate constant for Mg·ATP binding and dissociating the acto-MyoA rigor complex (actin; from event lifetimes at 0.3 and 8 μM ATP): ~1.5e+07 M⁻¹ s⁻¹
working stroke (power stroke) (actin; shift in mean position of event distribution, 244 acto-MyoA binding events, 2 μM ATP): 3 nm

B2: Biotinylated PfMyoA neck peptide 801–818 (peptide)
peptide: Biotin-SGSGIPSLLRVQAHIRKKMVAQ-OH
SMILES: CC[C@H](C)[C@H](NC(=O)[C@H](Cc1c[nH]cn1)NC(=O)[C@H](C)NC(=O)[C@H](CCC(N)=O)NC(=O)[C@@H](NC(=O)[C@H](CCCNC(=N)N)NC(=O)[C@H](CC(C)C)NC(=O)[C@H](CC(C)C)NC(=O)[C@H](CO)NC(=O)[C@@H]1CCCN1C(=O)[C@@H](NC(=O)CNC(=O)[C@H](CO)NC(=O)CNC(=O)[C@H](CO)NC(=O)CCCC[C@@H]1SC[C@@H]2NC(=O)N[C@@H]21)[C@@H](C)CC)C(C)C)C(=O)N[C@@H](CCCNC(=N)N)C(=O)N[C@@H](CCCCN)C(=O)N[C@@H](CCCCN)C(=O)N[C@@H](CCSC)C(=O)N[C@H](C(=O)N[C@@H](C)C(=O)N[C@@H](CCC(N)=O)C(=O)O)C(C)C
notes: source: synthetic peptide (Mimotopes)
Kd [2]: 320 nM

B3: Biotinylated PfMyoA neck peptide 786–803 (peptide)
peptide: Biotin-SGSGAAILKHKYKQKVNKNIPS-NH2
SMILES: CC[C@H](C)[C@H](NC(=O)[C@H](C)NC(=O)[C@H](C)NC(=O)CNC(=O)[C@H](CO)NC(=O)CNC(=O)[C@H](CO)NC(=O)CCCC[C@@H]1SC[C@@H]2NC(=O)N[C@@H]21)C(=O)N[C@@H](CC(C)C)C(=O)N[C@@H](CCCCN)C(=O)N[C@@H](Cc1c[nH]cn1)C(=O)N[C@@H](CCCCN)C(=O)N[C@@H](Cc1ccc(O)cc1)C(=O)N[C@@H](CCCCN)C(=O)N[C@@H](CCC(N)=O)C(=O)N[C@@H](CCCCN)C(=O)N[C@H](C(=O)N[C@@H](CC(N)=O)C(=O)N[C@@H](CCCCN)C(=O)N[C@@H](CC(N)=O)C(=O)N[C@H](C(=O)N1CCC[C@H]1C(=O)N[C@@H](CO)C(N)=O)[C@@H](C)CC)C(C)C
notes: as for B2
Kd [2]: 480 nM
